Values belong to the molecule of their own block, whether it stands above or below them.
What was measured:
[1] = system: GFP-14-3-3β and its binding proteins; assay: GFP-14-3-3β co-IP with LC-MS/MS label-free quantification, untreated versus PP1c-treated; parameters: species or system human; conditions: PP1 vs untreated; LFQ intensities; 3 replicates each
GFP-14-3-3β = GFP-14-3-3β co-IP with LC-MS/MS, untreated GFP-14-3-3β versus GFP control (14-3-3 interactome); type: binding, human; conditions: untreated vs GFP; LFQ intensities; 3 replicates each

Difference (log2), PP1 vs untreated [1]: 0.4246 log2
B1: TUBB4A (protein, UniProt P04350 1-444, looked up)
Tubulin beta-4A chain: MREIVHLQAGQCGNQIGAKFWEVISDEHGIDPTGTYHGDSDLQLERINVYYNEATGGNYVPRAVLVDLEPGTMDSVRSGPFGQIFRPDNFVFGQSGAGNNWAKGHYTEGAELVDAVLDVVRKEAESCDCLQGFQLTHSLGGGTGSGMGTLLISKIREEFPDRIMNTFSVVPSPKVSDTVVEPYNATLSVHQLVENTDETYCIDNEALYDICFRTLKLTTPTYGDLNHLVSATMSGVTTCLRFPGQLNADLRKLAVNMVPFPRLHFFMPGFAPLTSRGSQQYRALTVPELTQQMFDAKNMMAACDPRHGRYLTVAAVFRGRMSMKEVDEQMLSVQSKNSSYFVEWIPNNVKTAVCDIPPRGLKMAATFIGNSTAIQELFKRISEQFTAMFRRKAFLHWYTGEGMDEMEFTEAESNMNDLVSEYQQYQDATAEEGEFEEEAEEEVA
Difference (log2), untreated vs GFP (GFP-14-3-3β): -1.261 log2

Difference (log2), PP1 vs untreated [1]: 0.4434 log2
B2: IMMT (protein, UniProt Q16891 34-758, looked up)
MICOS complex subunit MIC60: STSGSSGLTTGKIAGAGLLFVGGGIGGTILYAKWDSHFRESVEKTIPYSDKLFEMVLGPAAYNVPLPKKSIQSGPLKISSVSEVMKESKQPASQLQKQKGDTPASATAPTEAAQIISAAGDTLSVPAPAVQPEESLKTDHPEIGEGKPTPALSEEASSSSIRERPPEEVAARLAQQEKQEQVKIESLAKSLEDALRQTASVTLQAIAAQNAAVQAVNAHSNILKAAMDNSEIAGEKKSAQWRTVEGALKERRKAVDEAADALLKAKEELEKMKSVIENAKKKEVAGAKPHITAAEGKLHNMIVDLDNVVKKVQAAQSEAKVVSQYHELVVQARDDFKRELDSITPEVLPGWKGMSVSDLADKLSTDDLNSLIAHAHRRIDQLNRELAEQKATEKQHITLALEKQKLEEKRAFDSAVAKALEHHRSEIQAEQDRKIEEVRDAMENEMRTQLRRQAAAHTDHLRDVLRVQEQELKSEFEQNLSEKLSEQELQFRRLSQEQVDNFTLDINTAYARLRGIEQAVQSHAVAEEEARKAHQLWLSVEALKYSMKTSSAETPTIPLGSAVEAIKANCSDNEFTQALTAAIPPESLTRGVYSEETLRARFYAVQKLARRVAMIDETRNSLYQYFLSYLQSLLLFPPQQLKPPPELCPEDINTFKLLSYASYCIEHGDLELAAKFVNQLKGESRRVAQDWLKEARMTLETKQIVEILTAYASAVGIGTTQVQPE
Difference (log2), untreated vs GFP (GFP-14-3-3β): 0.387 log2

Difference (log2), PP1 vs untreated [1]: 0.4378 log2
B3: ATP5J2 (protein, UniProt P56134 2-94, looked up)
ATP synthase F(0) complex …: ASVGECPAPVPVKDKKLLEVKLGELPSWILMRDFSPSGIFGAFQRGYYRYYNKYINVKKGSISGITMVLACYVLFSYSFSYKHLKHERLRKYH
Difference (log2), untreated vs GFP (GFP-14-3-3β): -0.05352 log2

Difference (log2), PP1 vs untreated [1]: 0.4276 log2
B4: CPS1 (protein, UniProt P31327 39-1500, looked up)
Carbamoyl-phosphate synthase …: LSVKAQTAHIVLEDGTKMKGYSFGHPSSVAGEVVFNTGLGGYPEAITDPAYKGQILTMANPIIGNGGAPDTTALDELGLSKYLESNGIKVSGLLVLDYSKDYNHWLATKSLGQWLQEEKVPAIYGVDTRMLTKIIRDKGTMLGKIEFEGQPVDFVDPNKQNLIAEVSTKDVKVYGKGNPTKVVAVDCGIKNNVIRLLVKRGAEVHLVPWNHDFTKMEYDGILIAGGPGNPALAEPLIQNVRKILESDRKEPLFGISTGNLITGLAAGAKTYKMSMANRGQNQPVLNITNKQAFITAQNHGYALDNTLPAGWKPLFVNVNDQTNEGIMHESKPFFAVQFHPEVTPGPIDTEYLFDSFFSLIKKGKATTITSVLPKPALVASRVEVSKVLILGSGGLSIGQAGEFDYSGSQAVKAMKEENVKTVLMNPNIASVQTNEVGLKQADTVYFLPITPQFVTEVIKAEQPDGLILGMGGQTALNCGVELFKRGVLKEYGVKVLGTSVESIMATEDRQLFSDKLNEINEKIAPSFAVESIEDALKAADTIGYPVMIRSAYALGGLGSGICPNRETLMDLSTKAFAMTNQILVEKSVTGWKEIEYEVVRDADDNCVTVCNMENVDAMGVHTGDSVVVAPAQTLSNAEFQMLRRTSINVVRHLGIVGECNIQFALHPTSMEYCIIEVNARLSRSSALASKATGYPLAFIAAKIALGIPLPEIKNVVSGKTSACFEPSLDYMVTKIPRWDLDRFHGTSSRIGSSMKSVGEVMAIGRTFEESFQKALRMCHPSIEGFTPRLPMNKEWPSNLDLRKELSEPSSTRIYAIAKAIDDNMSLDEIEKLTYIDKWFLYKMRDILNMEKTLKGLNSESMTEETLKRAKEIGFSDKQISKCLGLTEAQTRELRLKKNIHPWVKQIDTLAAEYPSVTNYLYVTYNGQEHDVNFDDHGMMVLGCGPYHIGSSVEFDWCAVSSIRTLRQLGKKTVVVNCNPETVSTDFDECDKLYFEELSLERILDIYHQEACGGCIISVGGQIPNNLAVPLYKNGVKIMGTSPLQIDRAEDRSIFSAVLDELKVAQAPWKAVNTLNEALEFAKSVDYPCLLRPSYVLSGSAMNVVFSEDEMKKFLEEATRVSQEHPVVLTKFVEGAREVEMDAVGKDGRVISHAISEHVEDAGVHSGDATLMLPTQTISQGAIEKVKDATRKIAKAFAISGPFNVQFLVKGNDVLVIECNLRASRSFPFVSKTLGVDFIDVATKVMIGENVDEKHLPTLDHPIIPADYVAIKAPMFSWPRLRDADPILRCEMASTGEVACFGEGIHTAFLKAMLSTGFKIPQKGILIGIQQSFRPRFLGVAEQLHNEGFKLFATEATSDWLNANNVPATPVAWPSQEGQNPSLSSIRKLIRDGSIDLVINLPNNNTKFVHDNYVIRRTAVDSGIPLLTNFQVTKLFAEAVQKSRKVDSKSLFHYRQYSAGKAA
Difference (log2), untreated vs GFP (GFP-14-3-3β): 0.419 log2

Difference (log2), PP1 vs untreated [1]: 0.4439 log2
B5: MAP4K4 (protein, UniProt O95819 2-1239, looked up)
Mitogen-activated protein …: ANDSPAKSLVDIDLSSLRDPAGIFELVEVVGNGTYGQVYKGRHVKTGQLAAIKVMDVTEDEEEEIKLEINMLKKYSHHRNIATYYGAFIKKSPPGHDDQLWLVMEFCGAGSITDLVKNTKGNTLKEDWIAYISREILRGLAHLHIHHVIHRDIKGQNVLLTENAEVKLVDFGVSAQLDRTVGRRNTFIGTPYWMAPEVIACDENPDATYDYRSDLWSCGITAIEMAEGAPPLCDMHPMRALFLIPRNPPPRLKSKKWSKKFFSFIEGCLVKNYMQRPSTEQLLKHPFIRDQPNERQVRIQLKDHIDRTRKKRGEKDETEYEYSGSEEEEEEVPEQEGEPSSIVNVPGESTLRRDFLRLQQENKERSEALRRQQLLQEQQLREQEEYKRQLLAERQKRIEQQKEQRRRLEEQQRREREARRQQEREQRRREQEEKRRLEELERRRKEEEERRRAEEEKRRVEREQEYIRRQLEEEQRHLEVLQQQLLQEQAMLLECRWREMEEHRQAERLQRQLQQEQAYLLSLQHDHRRPHPQHSQQPPPPQQERSKPSFHAPEPKAHYEPADRAREVEDRFRKTNHSSPEAQSKQTGRVLEPPVPSRSESFSNGNSESVHPALQRPAEPQVPVRTTSRSPVLSRRDSPLQGSGQQNSQAGQRNSTSIEPRLLWERVEKLVPRPGSGSSSGSSNSGSQPGSHPGSQSGSGERFRVRSSSKSEGSPSQRLENAVKKPEDKKEVFRPLKPADLTALAKELRAVEDVRPPHKVTDYSSSSEESGTTDEEDDDVEQEGADESTSGPEDTRAASSLNLSNGETESVKTMIVHDDVESEPAMTPSKEGTLIVRQTQSASSTLQKHKSSSSFTPFIDPRLLQISPSSGTTVTSVVGFSCDGMRPEAIRQDPTRKGSVVNVNPTNTRPQSDTPEIRKYKKRFNSEILCAALWGVNLLVGTESGLMLLDRSGQGKVYPLINRRRFQQMDVLEGLNVLVTISGKKDKLRVYYLSWLRNKILHNDPEVEKKQGWTTVGDLEGCVHYKVVKYERIKFLVIALKSSVEVYAWAPKPYHKFMAFKSFGELVHKPLLVDLTVEEGQRLKVIYGSCAGFHAVDVDSGSVYDIYLPTHIQCSIKPHAIIILPNTDGMELLVCYEDEGVYVNTYGRITKDVVLQWGEMPTSVAYIRSNQTMGWGEKAIEIRSVETGHLDGVFMHKRAQRLKFLCERNDKVFFASVRSGGSSQVYFMTLGRTSLLSW
Difference (log2), untreated vs GFP (GFP-14-3-3β): 0.6698 log2

— paper PMC7367873, “Dissecting the sequence determinants for dephosphorylation by the catalytic subunits of phosphatases PP1 and PP2A” (Nature Communications, 2020)
